Source: patent US20230016396A1

Legend:
[1] = target: T1, M15-K(biotin)-AAR peptide (SEQ ID NO: 12)
T1 chain: KAAR

[2] = target: T2, M15-L-P1-AR target polypeptide with P1 = L
T2 chain: LLAR

[3] = target: T3, M15-L-P1-AR target polypeptide with P1 = Q
T3 chain: LQAR

[4] = target: T4, M15-L-P1-AR target polypeptide with P1 = A
T4 chain: LAAR

[5] = target: T5, M15-L-P1-AR target polypeptide with P1 = M
T5 chain: LMAR

[6] = target: T6, M15-L-P1-AR target polypeptide with P1 = V
T6 chain: LVAR

[7] = target: T7, M15-L-P1-AR target polypeptide with P1 = I
T7 chain: LIAR

[8] = target: T8, M15-L-P1-AR target polypeptide with P1 = E
T8 chain: LEAR

[9] = target: T9, M15-L-P1-AR target polypeptide with P1 = D
T9 chain: LDAR

B1: engineered dipeptidyl peptidase clone (SEQ ID NO: 6) derived from dipeptidyl peptidase from Thermomonas hydrothermalis (protein)
chain: DEGMWVPQQLPEIAGALKKAGLKLDPKQLSDLTGDPMGAVVSLGGCTGSFVSPQGLVATNHHCAYGAIQLNSTPEKNLIKDGFNAPTQADELSAGPNARIYVLEGITDVTAQAKAAMAAAGNDPVARANALEAFEKKITSDCEAEPGYRCRVYSFMGGITYRLFKNLEIKDVRLVYAPPSSVGKFGGDIDMGMWPTHTGDFSFYRAYVGKDGKPAPYSKDNVPYRPKHWLKIADTPLGEGDFVMVAGYPGRTDRYALVAEFENTQNWLYPAISKAYKDQIALVEAAAKDNPEIAVKYAAALAGWNRTSKNFDGQLEGFKRNDVLAIKRREEAAVLEWLRARGKAGTPALEAHAALVKLVADTARTQERDLVLGSFNRTGIIGVAVNLYRLAIERQKPDAEREPGYQQRDLPVIEGSLKQMERRYVPAMDRQLRAYWLDRYVALPAAQHVAAVDAWLGGSDKAAAEAALARLDQSRLGSLEERLKWFNADRAAFEASTDPAIQYAVAVMPTLLAMEQQAKTRYGVALEARPRYLQAVVDYKKSKGQAVYPDANSTLRITYGHVKGYTGLNGKVYTPFTTLEEVAAKETGVEPFDNPKALLEAVAAKRYAGLADARLGTVPVNFLADLDITGGNSGSPVLDANGRLVGLAFAVTLESVASNWVFDPVLTRMISVDQRYMRWIMQEVMPAPQLLEELGVPPRQ
Question: B1 was tested. Which “percentage of conversion to cleavage product (HPLC, UV absorbance at 254 nm)” value [1] did it give?
Answer: about 10% of the model peptide was converted to the cleavage product, M15-K(biotin)-A

B2: M15-L_Z001 (first selected modified cleavase) (protein)
chain: MHKTRLVAALAAALATLAPAAWADEGMWVPQQLPEIAGALKKAGLKLDPKQLSDLTGDPMGAVVSLGGCTGSFVSPQGLVATNHHCAYGAIQLNSTPEKNLIKDGFNAPTQADELSAGPNARIYVLEGITDVTAQAKAAMAAAGNDPVARANALEAFEKKITSDCEAEPGYRCRVYSFMGGITYRLFKNLEIKDVRLVYAPPSSVGKFGGDIDMGMWPTHTGDFSFYRAYVGKDGKPAPYSKDNVPYRPKHWLKIADTPLGEGDFVMVAGYPGRTDRYALVAEFENTQNWLYPAISKAYKDQIALVEAAAKDNPEIAVKYAAALAGWNRTSKNFDGQLEGFKRNDVLAIKRREEAAVLEWLRARGKAGTPALEAHAALVKLVADTARTQERDLVLGSFNRTGIIGVAVNLYRLAIERQKPDAEREPGYQQRDLPVIEGSLKQMERRYVPAMDRQLRAYWLDRYVALPAAQHVAAVDAWLGGSDKAAAEAALARLDQSRLGSLEERLKWFNADRAAFEASTDPAIQYAVAVMPTLLAMEQQAKTRYGVALEARPRYLQAVVDYKKSKGQAVYPDANSTLRITYGHVKGYTGLNGKVYTPFTTLEEVAAKETGVEPFDNPKALLEAVAAKRYAGLADARLGTVPVNFLADLDITGGNSGSPVLDANGRLVGLAFAGTLESVASNWVFDPVLTRMISVDQRYMRWIMQEVMPAPQLLEELGVPPRQ
Question: For B2, which “cleavage of the M15-L-labeled P1 residue from the polypeptide” value (shortened to “cleavage of the M15-L-labeled P1 residue”) [2] is on record?
Answer: provided 100% cleavage for polypeptides with the following M15-L-labeled P1 residues: A, I, L, M, Q, V

Question: What about the “cleavage of the M15-L-labeled P1 residue” value [3] of the same protein?
Answer: provided 100% cleavage for polypeptides with the following M15-L-labeled P1 residues: A, I, L, M, Q, V

Question: And the “cleavage of the M15-L-labeled P1 residue” value [4]?
Answer: provided 100% cleavage for polypeptides with the following M15-L-labeled P1 residues: A, I, L, M, Q, V

Question: And the “cleavage of the M15-L-labeled P1 residue” value [5]?
Answer: provided 100% cleavage for polypeptides with the following M15-L-labeled P1 residues: A, I, L, M, Q, V

Question: What about the “cleavage of the M15-L-labeled P1 residue” value [6] of the same protein?
Answer: provided 100% cleavage for polypeptides with the following M15-L-labeled P1 residues: A, I, L, M, Q, V

Question: What about the “cleavage of the M15-L-labeled P1 residue” value [7] of the same protein?
Answer: provided 100% cleavage for polypeptides with the following M15-L-labeled P1 residues: A, I, L, M, Q, V

B3: M15-L_Z002 (protein)
chain: B2 chain
Question: For B3, which “cleavage profile (cleavage efficiency)” value [8] is on record?
Answer: M15-L_Z002, having specificity towards D and E in the P1 position

Question: What about the “cleavage profile (cleavage efficiency)” value [9] of the same protein?
Answer: M15-L_Z002, having specificity towards D and E in the P1 position
